Source: US20240392251A1, “CULTURE MEDIUM AND CULTURE METHOD FOR LUNG CANCER EPITHELIAL CELLS, AND APPLICATION THEREOF” (PRECEDO PHARMACEUTICALS CO., LTD, priority 2021, published 2024)

Key:
[1] = tested on: lung cancer epithelial cells (Sample No. B26); experiment: Effects of different concentrations of the additive factors on proliferation of primary lung cancer cells; format: cell-based, human; settings: added to No. 8 medium lacking the factor; cell number ratio to Blank Control; FIGS. 3A-3H
Protocol: (§1) Extracellular matrix gel (Matrigel®) was diluted with serum-free DMEM/F12 medium at a ratio of 1:100 to prepare an extracellular matrix diluent. The extracellular matrix diluent was added to a 48-well culture plate with 200 μl/well to completely cover the bottom of the wells of the culture plate. The culture plate was let stand for 1 hour in a 37° C. incubator. After 1 hour, the extracellular matrix diluent was removed to provide a Matrigel-coated plate.
No. 8 culture medium for primary lung cancer epithelial cells was prepared.
Lung cancer epithelial cells derived from cancer tissues were isolated from the cancer tissue of a lung cancer patient (Sample No. B26) using the same method as in Example 1. Next, lung cancer epithelial cells derived from cancer tissues were counted with a flow imaging counter (JIMBIO FIL, Jiangsu Jimbio Technology Co., Ltd.) to get the total number of cells. Then, the cells were inoculated at a density of 4×10^4 cells/cm^2 in a 48-well plate which was coated with Matrigel®. […] The centrifuged cell pellet was resuspended in the basic medium BM and the cells were counted with a flow imaging counter (JIMBIO FIL, Jiangsu Jimbio Technology Co., Ltd.) to get the total number of cells. […]

[2] = tested on: lung cancer cells (No. B18); experiment: Effects of different factors added to basic medium BM on proliferation of primary lung cancer cells; format: cell-based, human; settings: factor added to BM at the concentrations of Table 3; 12 days of culture; FIGS. 1A-1D
Protocol: as §1, with “(Matrigel®) (manufactured by Corning)” for “(Matrigel®)”, “500” for “200”
Preparation of basic medium (abbreviated as BM): BM was prepared by adding 0.2 vol. % of Primocin (purchased from Invivogen, with a concentration of 50 mg/ml) to the commercial DMEM/F-12 medium to provide a final concentration of 100 μg/ml.
Next, different kinds and concentrations of additive factors (Table 3) were added to the basic medium (BM), so as to prepare culture mediums for lung cancer epithelial cells containing different additive components.
The culture mediums with different components were added at a volume of 500 μl/well to 48-well plates which were coated with extracellular matrix gel (Matrigel). Lung cancer cells (No. B18) isolated from lung cancer tissues according to the same method as described in Example 1 were inoculated at a cell density of 2×10^4 cells/cm^2 in the above-mentioned 48-well culture plates which were coated with Matrigel. […]

B1: epidermal growth factor: growth factor from Sino Biological Inc. (protein, UniProt P01133 23-1207, looked up)
Pro-epidermal growth factor: PQHWSCPEGTLAGNGNSTCVGPAPFLIFSHGNSIFRIDTEGTNYEQLVVDAGVSVIMDFHYNEKRIYWVDLERQLLQRVFLNGSRQERVCNIEKNVSGMAINWINEEVIWSNQQEGIITVTDMKGNNSHILLSALKYPANVAVDPVERFIFWSSEVAGSLYRADLDGVGVKALLETSEKITAVSLDVLDKRLFWIQYNREGSNSLICSCDYDGGSVHISKHPTQHNLFAMSLFGDRIFYSTWKMKTIWIANKHTGKDMVRINLHSSFVPLGELKVVHPLAQPKAEDDTWEPEQKLCKLRKGNCSSTVCGQDLQSHLCMCAEGYALSRDRKYCEDVNECAFWNHGCTLGCKNTPGSYYCTCPVGFVLLPDGKRCHQLVSCPRNVSECSHDCVLTSEGPLCFCPEGSVLERDGKTCSGCSSPDNGGCSQLCVPLSPVSWECDCFPGYDLQLDEKSCAASGPQPFLLFANSQDIRHMHFDGTDYGTLLSQQMGMVYALDHDPVENKIYFAHTALKWIERANMDGSQRERLIEEGVDVPEGLAVDWIGRRFYWTDRGKSLIGRSDLNGKRSKIITKENISQPRGIAVHPMAKRLFWTDTGINPRIESSSLQGLGRLVIASSDLIWPSGITIDFLTDKLYWCDAKQSVIEMANLDGSKRRRLTQNDVGHPFAVAVFEDYVWFSDWAMPSVMRVNKRTGKDRVRLQGSMLKPSSLVVVHPLAKPGADPCLYQNGGCEHICKKRLGTAWCSCREGFMKASDGKTCLALDGHQLLAGGEVDLKNQVTPLDILSKTRVSEDNITESQHMLVAEIMVSDQDDCAPVGCSMYARCISEGEDATCQCLKGFAGDGKLCSDIDECEMGVPVCPPASSKCINTEGGYVCRCSEGYQGDGIHCLDIDECQLGEHSCGENASCTNTEGGYTCMCAGRLSEPGLICPDSTPPPHLREDDHHYSVRNSDSECPLSHDGYCLHDGVCMYIEALDKYACNCVVGYIGERCQYRDLKWWELRHAGHGQQQKVIVVAVCVVVLVMLLLLSLWGAHYYRTQKLLSKNPKNPYEESSRDVRSRRPADTEDGMSSCPQPWFVVIKEHQDLKNGGQPVAGEDGQAADGSMQPTSWRQEPQLCGMGTEQGCWIPVSSDKGSCPQVMERSFHMPSYGTQTLEGGVEKPHSLLSANPLWQQRALDPPHQMELTQ
modifications: Pro-epidermal growth factor
amount in the culture medium, most preferably [1]: 20 ng/mL | effect on cell proliferation (ratio of number of cells to that in basic medium BM) [2]: certain promoting effects on cell proliferation in specific concentration ranges
